# Data as given in US20220003777.
# T1: fetuin, P12763
# T1 chain: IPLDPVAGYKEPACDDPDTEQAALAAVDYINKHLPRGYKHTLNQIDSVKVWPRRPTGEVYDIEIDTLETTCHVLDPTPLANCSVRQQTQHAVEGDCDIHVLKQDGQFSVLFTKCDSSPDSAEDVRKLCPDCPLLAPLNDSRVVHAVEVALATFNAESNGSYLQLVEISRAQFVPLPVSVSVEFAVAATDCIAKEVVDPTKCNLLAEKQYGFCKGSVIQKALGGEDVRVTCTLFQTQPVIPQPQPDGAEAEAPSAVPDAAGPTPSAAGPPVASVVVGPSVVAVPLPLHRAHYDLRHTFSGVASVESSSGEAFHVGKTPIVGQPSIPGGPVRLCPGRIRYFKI
# T2: Syncam-1, recombinant, Q9BY67
# T2 chain: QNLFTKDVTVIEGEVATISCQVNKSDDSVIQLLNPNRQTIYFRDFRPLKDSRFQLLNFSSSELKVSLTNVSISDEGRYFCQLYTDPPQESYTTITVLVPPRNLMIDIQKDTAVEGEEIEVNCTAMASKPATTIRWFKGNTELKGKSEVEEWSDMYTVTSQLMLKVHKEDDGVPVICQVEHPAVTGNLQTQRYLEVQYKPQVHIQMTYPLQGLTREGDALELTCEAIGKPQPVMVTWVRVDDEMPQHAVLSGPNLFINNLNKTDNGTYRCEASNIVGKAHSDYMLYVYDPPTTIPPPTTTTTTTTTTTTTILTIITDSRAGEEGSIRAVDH
# T3: PSGL-1, recombinant, Q14242
# T3 chain: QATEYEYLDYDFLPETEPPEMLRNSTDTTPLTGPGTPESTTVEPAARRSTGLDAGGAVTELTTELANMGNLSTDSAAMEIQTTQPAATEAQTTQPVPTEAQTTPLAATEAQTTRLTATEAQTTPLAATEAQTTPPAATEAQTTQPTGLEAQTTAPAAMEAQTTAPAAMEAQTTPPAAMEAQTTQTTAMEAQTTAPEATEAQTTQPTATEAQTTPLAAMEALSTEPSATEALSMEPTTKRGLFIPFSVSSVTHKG
# T4: CD43, recombinant, P16150
# T4 chain: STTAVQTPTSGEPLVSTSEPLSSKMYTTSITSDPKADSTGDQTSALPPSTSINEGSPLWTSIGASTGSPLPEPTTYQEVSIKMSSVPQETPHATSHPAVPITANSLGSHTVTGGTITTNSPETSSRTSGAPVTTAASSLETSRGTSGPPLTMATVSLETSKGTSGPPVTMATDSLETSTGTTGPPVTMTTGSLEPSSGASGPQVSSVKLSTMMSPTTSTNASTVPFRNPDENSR
# T5: recombinant human MUC16, Q8WXI7
# T5 chain: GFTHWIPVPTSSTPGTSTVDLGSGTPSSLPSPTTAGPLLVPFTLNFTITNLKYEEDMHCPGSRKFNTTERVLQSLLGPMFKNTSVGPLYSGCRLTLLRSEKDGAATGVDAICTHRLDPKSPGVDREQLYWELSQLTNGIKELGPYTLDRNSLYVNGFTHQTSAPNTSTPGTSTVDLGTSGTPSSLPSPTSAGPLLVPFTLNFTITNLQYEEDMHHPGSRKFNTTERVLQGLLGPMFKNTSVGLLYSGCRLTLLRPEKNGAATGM
# T6: synthetic glycopeptide RPPIT*QSSL
# T6 chain: RPPITQSSL
# T7: podocalyxin, recombinant, O00592
# T7 chain: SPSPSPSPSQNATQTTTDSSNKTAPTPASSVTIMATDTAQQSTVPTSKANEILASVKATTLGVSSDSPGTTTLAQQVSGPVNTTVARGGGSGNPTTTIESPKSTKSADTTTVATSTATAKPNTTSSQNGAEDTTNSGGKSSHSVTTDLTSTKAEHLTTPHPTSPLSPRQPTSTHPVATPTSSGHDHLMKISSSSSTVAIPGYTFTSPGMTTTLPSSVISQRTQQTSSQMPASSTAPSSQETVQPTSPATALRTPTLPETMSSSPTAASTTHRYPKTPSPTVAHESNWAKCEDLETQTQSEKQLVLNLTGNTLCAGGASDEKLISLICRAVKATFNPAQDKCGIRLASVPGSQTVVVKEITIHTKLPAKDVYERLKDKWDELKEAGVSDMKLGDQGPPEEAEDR
# T8: CD45, recombinant, P08575
# T8 chain: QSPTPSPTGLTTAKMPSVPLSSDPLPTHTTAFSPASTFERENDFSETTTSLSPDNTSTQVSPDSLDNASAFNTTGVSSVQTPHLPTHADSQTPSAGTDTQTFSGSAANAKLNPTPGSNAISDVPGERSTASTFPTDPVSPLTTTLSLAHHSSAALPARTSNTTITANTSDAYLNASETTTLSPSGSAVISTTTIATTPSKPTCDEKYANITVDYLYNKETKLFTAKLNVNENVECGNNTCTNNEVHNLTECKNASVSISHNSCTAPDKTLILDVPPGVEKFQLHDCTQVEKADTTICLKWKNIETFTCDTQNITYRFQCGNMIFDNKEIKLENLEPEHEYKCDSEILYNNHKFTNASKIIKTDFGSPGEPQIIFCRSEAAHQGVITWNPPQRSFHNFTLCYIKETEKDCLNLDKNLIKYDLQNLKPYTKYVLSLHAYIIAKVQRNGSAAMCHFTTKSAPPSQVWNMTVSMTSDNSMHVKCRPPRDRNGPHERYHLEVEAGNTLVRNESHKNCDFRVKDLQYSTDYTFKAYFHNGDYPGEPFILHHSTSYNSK
# T9: C1 esterase inhibitor, human plasma-derived, P05155
# T9 chain: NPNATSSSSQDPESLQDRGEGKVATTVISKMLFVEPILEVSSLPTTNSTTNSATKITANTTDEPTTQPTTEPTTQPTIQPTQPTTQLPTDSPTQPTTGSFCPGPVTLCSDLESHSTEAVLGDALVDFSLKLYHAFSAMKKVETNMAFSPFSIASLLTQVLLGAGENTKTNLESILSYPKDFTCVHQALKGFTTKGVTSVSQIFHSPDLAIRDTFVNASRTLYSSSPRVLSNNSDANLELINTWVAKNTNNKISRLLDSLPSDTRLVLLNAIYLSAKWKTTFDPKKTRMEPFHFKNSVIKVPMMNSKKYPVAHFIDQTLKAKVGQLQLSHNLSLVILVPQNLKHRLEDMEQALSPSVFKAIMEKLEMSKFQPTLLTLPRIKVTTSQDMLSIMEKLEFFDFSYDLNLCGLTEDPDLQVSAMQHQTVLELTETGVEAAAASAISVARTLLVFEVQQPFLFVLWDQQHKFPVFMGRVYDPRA
# B1: Secreted Protease of C1 Esterase Inhibitor (StcE), recombinant N-terminal His-tagged (protein)
# chain: ADNNSAIYFNTSQPINDLQGSLAAEVKFAQSQILPAHPKEGDSQPHLTSLRKSLLLVRPVKADDKTPVQVEARDDNNKILGTLTLYPPSSLPDTIYHLDGVPEGGIDFTPHNGTKKIINTVAEVNKLSDASGSSIHSHLTNNALVEIHTANGRWVRDIYLPQGPDLEGKMVRFVSSAGYSSTVFYGDRKVTLSVGNTLLFKYVNGQWFRSGELENNRITYAQHIWSAELPAHWIVPGLNLVIKQGNLSGRLNDIKIGAPGELLLHTIDIGMLTTPRDRFDFAKDKEAHREYFQTIPVSRMIVNNYAPLHLKEVMLPTGELLTDMDPGNGGWHSGTMRQRIGKELVSHGIDNANYGLNSTAGLGENSHPYVVAQLAAHNSRGNYANGIQVHGGSGGGGIVTLDSTLGNEFSHEVGHNYGLGHYVDGFKGSVHRSAENNNSTWGWDGDKKRFIPNFYPSQTNEKSCLNNQCQEPFDGHKFGFDAMAGGSPFSAANRFTMYTPNSSAIIQRFFENKAVFDSRSSTGFSKWNADTQEMEPYEHTIDRAEQITASVNELSESKMAELMAEYAVVKVHMWNGNWTRNIYIPTASADNRGSILTINHEAGYNSYLFINGDEKVVSQGYKKSFVSDGQFWKERDVVDTREARKPEQFGVPVTTLVGYYDPEGTLSSYIYPAMYGAYGFTYSDDSQNLSDNDCQLQVDTKEGQLRFRLANHRANNTVMNKFHINVPTESQPTQATLVCNNKILDTKSLTPAPEGLTYTVNGQALPAKENEGCIVSVNSGKRYCLPVGQRSGYSLPDWIVGQEVYVDSGAKAKVLLSDWDNLSYNRIGEFVGNVNPADMKKVKAWNGQYLDFSKPRSMRVVYK
# What was measured:
# fetuin, P12763 = biological target: T1, fetuin, P12763
# [1] = biological target: T2, Syncam-1, recombinant, Q9BY67
# [2] = biological target: MUC16, native human (cell lines, cell lysates and supernatants, cancer patient ascites), Q8WXI7
# [3] = biological target: T3, PSGL-1, recombinant, Q14242
# [4] = biological target: T4, CD43, recombinant, P16150
# [5] = biological target: bovine serum albumin, P02769
# Chain of bovine serum albumin, P02769 (P02769 25-607): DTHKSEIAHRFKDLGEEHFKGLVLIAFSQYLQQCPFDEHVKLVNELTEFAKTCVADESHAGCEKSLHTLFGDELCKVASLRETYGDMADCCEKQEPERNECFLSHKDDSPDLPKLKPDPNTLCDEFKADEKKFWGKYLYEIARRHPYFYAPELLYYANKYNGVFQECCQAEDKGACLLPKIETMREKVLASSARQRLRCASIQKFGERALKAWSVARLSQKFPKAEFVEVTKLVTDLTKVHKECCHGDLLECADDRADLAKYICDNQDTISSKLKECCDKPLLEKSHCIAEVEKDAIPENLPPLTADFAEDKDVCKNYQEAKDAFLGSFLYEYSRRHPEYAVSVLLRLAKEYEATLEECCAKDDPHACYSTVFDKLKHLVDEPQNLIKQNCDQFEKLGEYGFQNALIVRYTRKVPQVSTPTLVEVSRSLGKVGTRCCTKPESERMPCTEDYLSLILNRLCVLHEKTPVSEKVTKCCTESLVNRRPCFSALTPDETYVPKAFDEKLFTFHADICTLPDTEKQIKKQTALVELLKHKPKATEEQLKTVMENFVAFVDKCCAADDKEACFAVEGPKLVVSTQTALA
# [6] = biological target: T5, recombinant human MUC16, Q8WXI7
# [7] = biological target: T6, synthetic glycopeptide RPPIT*QSSL
# [8] = biological target: T7, podocalyxin, recombinant, O00592
# [9] = biological target: T8, CD45, recombinant, P08575
# [10] = biological target: T9, C1 esterase inhibitor, human …
protein,measurement,setting,value
B1,cleavage of substrate (gel shift),"fetuin, P12763",did not cleave
same,cleavage of substrate (gel shift),[1],cleaved all tested mucin-like glycoproteins
same,cleavage in ascites fluid (anti-MUC16 Western blot),[2],dose-dependent decrease in apparent molecular weight
same,cleavage of substrate (gel shift),[3],cleaved all tested mucin-like glycoproteins
same,cleavage of substrate (gel shift),[4],cleaved all tested mucin-like glycoproteins
same,cleavage of substrate (gel shift),[5],did not cleave
same,cleavage of substrate (gel shift),[6],cleaved all tested mucin-like glycoproteins
same,cleavage of synthetic glycopeptide (MS),[7],StcE cleaved a synthetic peptide containing a single GalNAc
same,cleavage of substrate (gel shift),[8],cleaved all tested mucin-like glycoproteins
same,cleavage of substrate (gel shift),[9],cleaved all tested mucin-like glycoproteins
same,"cleavage of substrate (SDS-PAGE, glycoprotein stain)",[10],active against C11NH
